Our source for the Kd values is article PMC4363659.

What all share (experiment): fluorescence polarization
Common to all, as to settings: FP: 50 mM Tris/HCl pH 8.0, 150 mM NaCl, 1 mM TCEP, 0.1 mg/ml BSA, 0.5 nM DNA, RT 10 min, EMSA: 10 mM HEPES pH 7.5, 100 mM KCl, 5 mM MgSO4, 5% glycerol
Background: Fluorescence polarisation rises when a labelled molecule tumbles more slowly, as on binding a larger partner.

The subject of data set [1] is His6::AvrBs3 (Xanthomonas campestris pv. vesicatoria).
Data set [2] has as its system His6::AvrBs3ΔN152-C16 (Xanthomonas campestris pv. vesicatoria).
For data set [3], the system named is His6::AvrBs3ΔN152 (Xanthomonas campestris pv. vesicatoria).

In general, Kd refers to a measure of binding affinity in units of concentration. Low readings indicate a tighter complex, high ones a looser complex. Regarding “E1U20 36-bp UPA20 promoter fragment (fluorescein)”, the Kd stood at 23.2 nM in data set [1], 282 nM in data set [2] and 99.2 nM in data set [3].
